Assay results: patent publication US20260356955 (published 2026)
Residue numbers refer to the chain shown, from its start.

T1: cynomolgus KLRB1 on CHO-K1 (cynomolgus)
T1 chain: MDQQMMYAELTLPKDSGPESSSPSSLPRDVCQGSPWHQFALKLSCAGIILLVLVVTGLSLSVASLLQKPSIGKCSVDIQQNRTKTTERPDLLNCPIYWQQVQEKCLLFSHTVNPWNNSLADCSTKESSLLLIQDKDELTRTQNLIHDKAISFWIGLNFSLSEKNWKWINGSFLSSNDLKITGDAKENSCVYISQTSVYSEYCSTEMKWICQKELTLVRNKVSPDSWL

T2: cynomolgus KLRB1 ECD (cynomolgus)
T2 chain: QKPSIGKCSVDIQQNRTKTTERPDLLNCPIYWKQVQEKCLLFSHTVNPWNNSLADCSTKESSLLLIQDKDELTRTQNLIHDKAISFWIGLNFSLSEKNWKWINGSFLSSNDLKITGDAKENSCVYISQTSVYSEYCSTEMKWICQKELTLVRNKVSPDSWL

B1: Hu50A8F2-15 (antibody, V domains shown)
VH: QVQLVQSGAEVKKPGASVKVSCKASGYTFIDYYINWVRQAPGQGLEWIGWIFPGSGHTKYNENFKGKVTLTVDTSTSTVYMELSSLRSEDTAVYFCARGDRSALGYFDYWGQGTTVTVSS
VL: DIQLTQSPSSLSASVGDRVTITCTASSSVSSTYLHWYQQKPGKSPKLLIYSTSNLASGVPSRFSGSGSGTDYTLTISSLQPEDFATYYCHQYHRSPLTFGQGTKLEIK
B2: Hu50A8F2-16 (antibody, V domains shown)
VH: B1 VH
VL: B1 VL with F84A
B3: Hu47A5H2-14 (antibody, V domains shown)
VH: QVQLVQSGAEVKKPGASVKVSCKGSGYSFTGYWMHWVRQAPGQGLEWMGMIHPSDSETRLNQKFKDKVTMTVDKSTSTVYMELSSLRSEDTAVYYCASEGLRRGSFAYWGQGTLVTVSS
VL: DIVLTQSPDSLAVSLGERATINCRASESVDNYGMTFMSWYQQKPGQPPKLLIYAASNQGSGVPDRFSGSGSGTDFTLTISSLQAEDVAVYYCQQSKEVPYTFGQGTKLEIK
B4: Hu47A5H2-16 (antibody, V domains shown)
VH: B3 VH
VL: EIVLTQSPATLSLSPGERATLSCRASESVDNYGMTFMSWYQQKPGQAPRLLIYAASNQGSGIPARFSGSGSGTDFTLTISSLEPEDFAVYYCQQSKEVPYTFGQGTKLEIK
B5: Hu47A5H2-03 (antibody, V domains shown)
VH: B3 VH with G24A, K67R, V72R, K74T
VL: B3 VL with Y40F
B6: Hu47A5H2-01 (antibody, V domains shown)
VH: B3 VH with G24A, K67R, V72R, K74T
VL: B3 VL with L4M
B7: Hu47A5H2-15 (antibody, V domains shown)
VH: B3 VH
VL: B3 VL with Y40F
B8: Hu47A5H2-04 (antibody, V domains shown)
VH: B3 VH with G24A, K67R, V72R, K74T
VL: B4 VL
B9: Hu47A5H2-10 (antibody, V domains shown)
VH: B3 VH with G24A, K67R
VL: B3 VL
B10: Hu47A5H2-09 (antibody, V domains shown)
VH: B3 VH with G24A, K67R
VL: B3 VL with L4M
B11: Hu47A5H2-13 (antibody, V domains shown)
VH: B3 VH
VL: B3 VL with L4M
B12: Hu47A5H2-02 (antibody, V domains shown)
VH: B3 VH with G24A, K67R, V72R, K74T
VL: B3 VL
B13: Hu47A5H2-06 (antibody, V domains shown)
VH: B3 VH with G24A, K67R, K74T
VL: B3 VL
B14: Hu47A5H2-05 (antibody, V domains shown)
VH: B3 VH with G24A, K67R, K74T
VL: B3 VL with L4M
B15: Hu47A5H2-08 (antibody, V domains shown)
VH: B3 VH with G24A, K67R, K74T
VL: B4 VL
B16: Hu47A5H2-12 (antibody, V domains shown)
VH: B3 VH with G24A, K67R
VL: B4 VL
B17: Hu22F10G3-1.4 (antibody, V domains shown)
VH: QVQLQESGPGLVKPSQTLSLTCTVSGYSLTSDFAWNWIRQHPGKGLEWIGDIRYSGSTDYNPSLKGRVTISVDTSKNQFSLKLSSVTAADTAVYYCARGGYYGYDEGYPMDYWGQGTLVTVSS
VL: DIVMTQSPDSLAVSLGERATISCRASESVDVYGNSFMHWYQQKPGQPPKLLIYLAFNLKSGVPARFSGSGSGTDFTLTISSLQAEDVATYYCQQNNEDPFTFGQGTKLEIK
B18: Hu22F10G3-4.3 (antibody, V domains shown)
VH: B17 VH with H41F, I49M, V68S, V72R, S80F
VL: B17 VL with A64D, T89V
B19: Hu22F10G3-1.3 (antibody, V domains shown)
VH: B17 VH
VL: B17 VL with A64D, T89V
B20: Hu22F10G3-2.1 (antibody, V domains shown)
VH: B17 VH with I49M, V72R
VL: B17 VL with S22N, A64D, T89V
B21: Hu22F10G3-4.1 (antibody, V domains shown)
VH: B17 VH with H41F, I49M, V68S, V72R, S80F
VL: B17 VL with S22N, A64D, T89V
B22: Hu22F10G3-2.4 (antibody, V domains shown)
VH: B17 VH with I49M, V72R
VL: B17 VL
B23: Hu22F10G3-3.2 (antibody, V domains shown)
VH: B17 VH with I49M, V68S, V72R
VL: B17 VL with S22N, T89V
B24: Hu22F10G3-3.3 (antibody, V domains shown)
VH: B17 VH with I49M, V68S, V72R
VL: B17 VL with A64D, T89V
B25: Hu22F10G3-2.2 (antibody, V domains shown)
VH: B17 VH with I49M, V72R
VL: B17 VL with S22N, T89V
B26: Hu22F10G3-1.2 (antibody, V domains shown)
VH: B17 VH
VL: B17 VL with S22N, T89V
B27: Hu22F10G3-4.2 (antibody, V domains shown)
VH: B17 VH with H41F, I49M, V68S, V72R, S80F
VL: B17 VL with S22N, T89V
B28: Hu22F10G3-3.1 (antibody, V domains shown)
VH: B17 VH with I49M, V68S, V72R
VL: B17 VL with S22N, A64D, T89V
B29: Hu22F10G3-4.4 (antibody, V domains shown)
VH: B17 VH with H41F, I49M, V68S, V72R, S80F
VL: B17 VL

The binders below were run against human KLRB1 on CHO-K1 (human) (assay: FACS).
Chain of human KLRB1 on CHO-K1 (human) (chain, as listed by the source): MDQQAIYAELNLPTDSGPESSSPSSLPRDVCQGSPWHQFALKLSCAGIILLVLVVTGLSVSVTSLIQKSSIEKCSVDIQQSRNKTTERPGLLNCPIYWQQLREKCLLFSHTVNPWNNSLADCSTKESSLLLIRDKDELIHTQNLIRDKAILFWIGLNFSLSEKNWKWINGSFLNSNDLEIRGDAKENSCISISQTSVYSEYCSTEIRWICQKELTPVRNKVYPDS

Row | Binder | EC50
1 | B1 | 5.39 nM
2 | B2 | 5.27 nM

Molecular target: T1, cynomolgus KLRB1 on CHO-K1
Test: FACS

Row | Binder | binding result
3 | B1 | no binding
4 | B2 | no binding

Molecular target: T2, cynomolgus KLRB1 ECD
Test: ELISA

Row | Binder | EC50
5 | B3 | 0.0414 nM
6 | B4 | 0.0429 nM
7 | B5 | 0.0137 nM
8 | B6 | 0.116 nM
9 | B7 | 0.00973 nM
10 | B8 | 0.0441 nM
11 | B9 | 0.0174 nM
12 | B10 | 0.0283 nM
13 | B11 | 0.0984 nM
14 | B12 | 0.0372 nM
15 | B13 | 0.0562 nM
16 | B14 | 0.0824 nM
17 | B15 | 0.0306 nM
18 | B16 | 0.02 nM

These binders were tested against human KLRB1 ECD (human) (assay: SPR).
Chain of human KLRB1 ECD (human) (chain, as listed by the source): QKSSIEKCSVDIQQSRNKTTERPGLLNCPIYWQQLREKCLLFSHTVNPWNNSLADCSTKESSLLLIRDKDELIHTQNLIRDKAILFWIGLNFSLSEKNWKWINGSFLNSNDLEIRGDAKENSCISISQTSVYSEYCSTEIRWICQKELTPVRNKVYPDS

Row | Binder | Kd
19 | B17 | 0.153 nM
20 | B18 | 0.0972 nM
21 | B19 | 0.177 nM
22 | B20 | 0.104 nM
23 | B21 | 0.105 nM
24 | B22 | 0.116 nM
25 | B23 | 0.189 nM
26 | B24 | 0.18 nM
27 | B25 | 0.135 nM
28 | B26 | 0.152 nM
29 | B27 | 0.13 nM
30 | B28 | 0.122 nM
31 | B29 | 0.121 nM

Molecular target: human KLRB1 on CHO-K1 (human)
Test: FACS
Remark: another data set of the same source

Row | Binder | EC50
32 | B3 | 2.12 nM
33 | B4 | 2.11 nM
34 | B5 | 1.73 nM
35 | B6 | 2.65 nM
36 | B7 | 1.98 nM
37 | B8 | 1.67 nM
38 | B9 | 0.88 nM
39 | B10 | 1.96 nM
40 | B11 | 1.79 nM
41 | B12 | 2.08 nM
42 | B13 | 1.67 nM
43 | B14 | 1.49 nM
44 | B15 | 1.68 nM
45 | B16 | 5.16 nM

Molecular target: T1, cynomolgus KLRB1 on CHO-K1
Test: FACS
Remark: another data set of the same source

Row | Binder | EC50
46 | B3 | ~1.82 nM
47 | B4 | ~1.8 nM
48 | B5 | 11.6 nM
49 | B6 | 7.76 nM
50 | B7 | ~1.74 nM
51 | B8 | 4.71 nM
52 | B9 | ~1.65 nM
53 | B10 | ~1.86 nM
54 | B11 | ~1.81 nM
55 | B12 | 7.51 nM
56 | B13 | 6.62 nM
57 | B14 | 5.22 nM
58 | B15 | 2.55 nM
59 | B16 | ~1.69 nM

What follows are binders tested against human KLRB1 on CHO-K1 (human) (assay: competition, CLEC2D, FACS).

Row | Binder | IC50
60 | B3 | 2.54 nM
61 | B4 | 2.41 nM
62 | B5 | 2.31 nM
63 | B6 | 1.59 nM
64 | B7 | 2.47 nM
65 | B8 | 2.53 nM
66 | B9 | 1.96 nM
67 | B10 | 2.22 nM
68 | B11 | 2.31 nM
69 | B12 | 2.05 nM
70 | B13 | 2.66 nM
71 | B14 | 2.16 nM
72 | B15 | 2.42 nM
73 | B16 | 2.17 nM

Each binder was assayed against human KLRB1 ECD (human) (assay: ELISA).

Row | Binder | EC50
74 | B1 | 0.0148 nM
75 | B2 | 0.0103 nM

Molecular target: human KLRB1 ECD (human)
Test: ELISA
Remark: another data set of the same source

Row | Binder | EC50
76 | B3 | 0.0309 nM
77 | B4 | 0.0287 nM
78 | B5 | 0.0205 nM
79 | B6 | 0.0195 nM
80 | B7 | 0.0241 nM
81 | B8 | 0.0212 nM
82 | B9 | 0.0272 nM
83 | B10 | 0.0273 nM
84 | B11 | 0.0266 nM
85 | B12 | 0.0198 nM
86 | B13 | 0.0204 nM
87 | B14 | 0.0172 nM
88 | B15 | 0.0174 nM
89 | B16 | 0.0263 nM
